The text below walks through data of the nanobody polyreactivity screen of Harvey et al. (2022).

The data set in a line: yeast display, Sf9 membrane polyspecificity reagent, FACS + sequencing; frameworks hold sequencing errors. A digest of the protocol:
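A nanobody's polyreactivity label depends on the gate it was sorted from. Yeast display cells were stained with 10% biotinylated, detergent-solubilized Sf9 membrane reagent for 1 hour at 4 °C, enriched on streptavidin microbeads and sorted by FACS. The low and high (top ~1%) gates were set on anti-HA fluorescence for expression and streptavidin fluorescence for reagent binding.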
For “QVQLVESGGGLVQAGGSLRLSCGASGSTFVAYDMGWYRQGPGKERELVAAISWSDATTYYADSVKGRFTISRDNAKNTVYLLMNSLNPEDTAVYYCAATRDTNNMDYWGQGTQVTVSS”, the “polyreactivity (PSR sort gate)” value is given as “low polyreactivity”. With “QVQLVESGGGLVQAGGSLRLSCGASGYIFGYYAMGWYRQAPRKERDLVAAISSSGGSTYYADSVKGRFTISRDHAKNTVYLQMNSLKPEDTAVYYCAAYRWGTHDRLDYWGQGTQVTVSS” the entry was “high polyreactivity”; with “QVQLVESGGGLVQAGGSLRLSCPAPGRIFDRNAMGRYRQAPGKERELVAAISGSGGRTYYADSVKGRFTISRDNAKNTVYLQMNSLKPEDTAVYYCAASRKYGYGDWGQGTQVTVSS”, “high polyreactivity”; with “QVQLVESGGGLVQAGGSLRLSCPASASIFLSNMGWYRQAPGKERELVAAITIGGSTDYADSVKGRFTISRDNAKNTVYLQMNSLKPEDTAVYYCNADNPYSDGADSLGNYWGQGTQVTVSS”, “low polyreactivity”. In the case of “QVQLVESGGGLVQAGGSLRLSCPASGFIFQHYAMGWYRQAPGKERELVAAIDFTDGSTYYADSVKGRFTISRDNAKNTVYLQMNSLKPEDTAVYYCNALDYLYGGIYLDEDYWGQGTQVTVSS” it was “low polyreactivity”. Regarding “QVQLVESGGGLVQAGGSLRLSCPASGFIFWYNVMGWSRQAPGKERELVAAISGRGGSTYYADSVKGRFTISRDNAKNTVYLQMNSLKPEDTAVYYCNTFSYRSGAYGYWGQGTQVTVSS”, the “polyreactivity (PSR sort gate)” value is “high polyreactivity”.

As for “QVQLVESGGGLVQAGGSLRLSCPASGFTFDVNAMGSYRQAPGKERELVATISSNGGSTYYADSVKGRFTISRDNAKNTVYLQMNSLKPEDTAVYYCNRGEIYFDNDDFDYWGQGTQVTVSS”, the “polyreactivity (PSR sort gate)” value is “low polyreactivity”.

Take “QVQLVESGGGLVQAGGSLRLSCPASGFTFYYYAMGWYRQAPGKERELVAAISYSGGSTYYADSVKGRFTISRDNAKNTVYLQMNRLKPEDTAVYYCAADLSTYRRGFDYWGQGTQVTVSS”: the “polyreactivity (PSR sort gate)” value was “high polyreactivity”.

As for “QVQLVESGGGLVQAGGSLRLSCPASGGIFGRYAMGWYRQAPGKERELVAAISSSGGRTYYADSVKGRFTISRDNAKNTVYLQMNSLKPEDTAVYYCNADRHSTYGYWGQGTQVTVSS”, the “polyreactivity (PSR sort gate)” value was “high polyreactivity”. With “QVQLVESGGGLVQAGGSLRLSCPASGIIFSTYAMGWYRQAPGKERELVATITSSGSNTYYADSVKGRFTISRDNAKNTVYLQMNSLKPEDTAVYYCATYSFFWWQYDYWGQGSQVTVSS” the entry was “high polyreactivity”; with “QVQLVESGGGLVQAGGSLRLSCPASGLIYYRYVMGWYRQAPGKERELVAAISGNGASTYYADSVKGRFTISRDNAKNTVFLQMNSLKPVDTAVYYCNADVYVSSKTHSSYPQWWGYDYWGQGTQVTVSS”, “low polyreactivity”. Regarding “QVQLVESGGGLVQAGGSLRLSCPASGRIFGVYAMGWYRQAPGKESELVAAIRYRGGSTYYADSVKGRFTISRDNAKNSVYLQMNSLIPEDTAVYYCAAEVWGVGYYAPYGYWGQGTQVTVSS”, the “polyreactivity (PSR sort gate)” value is listed as “high polyreactivity”.

For the sequence “QVQLVESGGGLVQAGGSLRLSCPASGRIFGYNSMGWYRQAPGKEREMVATMSSGGGSNYADSVKGRFTISRDNAKNTVYLQMKSLKPEDTAVFYCAADLFLDGSSLYAPNWWPDGWNTYRVLGGYWGQGTQVTVSS”, the “polyreactivity (PSR sort gate)” value was “low polyreactivity”. With “QVQLVESGGGLVQAGGSLRLSCPASGRIFRYYPMGWYRQAPGKEREFVAGITWSGGRTYYADSVKGRFTISRDNAKNTVFVQMNSLKPEDTAVYYCNADAGTRVGWWDDYDYWGQGTQVTVSS” the entry was “low polyreactivity”; with “QVQLVESGGGLVQAGGSLRLSCPASGRIFYRYAMGWYRQEPGKERELVADITWRGGRTYYADSVKGRFTISRDNAKNTVYLQMNSLKPEDTAVYYCAATGGFSWSRDYWGQGTQVTVSS”, “low polyreactivity”; with “QVQLVESGGGLVQAGGSLRLSCPASGSIIIRNAMGWYRQAPGKERELVAAISIGDGSTYADSVKGRFTISRDNAKNTVYLQMNSLKPEDTAVYYCAADRYGFYLESYYWGQGTQVTVSS”, “low polyreactivity”. As for “QVQLVESGGGLVQAGGSLRLSCPASGSIIYYAMGWSRQPPGKEREFVAAITKSGGSTYYADSVKGRFTFSRDNAKNTVYLQMNSLKPEDTAVYYCSARGTWAGFYYWGQGTQVTVSS”, the “polyreactivity (PSR sort gate)” value is “high polyreactivity”. “QVQLVESGGGLVQAGGSLRLSCPASGSIYGLYSMGWYRQAPGKERELVAVITYSVGTTYYADSVKGRFTISRDNAKNTVYLQMNSLKPEDTAVYYCAADLYWYYPWSAYYGEYDYWGQGTQVTVSS”: the “polyreactivity (PSR sort gate)” value is listed as “low polyreactivity”. With “QVQLVESGGGLVQAGGSLRLSCPASGSNLYPYAMGSSTQPPATEREMVATISYSVVSTYYAESVKGRFTISRDNAKNTVYLQMNSLKPEDTAVYYCADKSRSSKYVYWGQGTQVSVSS” the entry was “high polyreactivity”; with “QVQLVESGGGLVQAGGSLRLSCPASGSTFAIYGMGWYRQAPGKERELVAGITRGGSTNYADSVKGRFTISRDNAKNTVYLQMNILKPEDTAVYYCNSPLGVRRFKSKGRSHYEYWGQGTQVSVSS”, “high polyreactivity”; with “QVQLVESGGGLVQAGGSLRLSCPASGSTFGPYAMGWYRQAPGKERELVATISGSGSSTYYADSVKGRFTISRDNAKNTVDLQMNSLKPEDTAFYYCATDLYFDLRYDYWGQGTQVTVSS”, “low polyreactivity”.

For “QVQLVESGGGLVQAGGSLRLSCPASGSTFYEYAMGWYRQEPGKERELVAAITSGGSTYYADSVKGRFTISRDNAKYTVYLQLNSQKPEDTAVYYCAADPRIRRGDRSTHGYDYWGQGTQVTVSS”, the “polyreactivity (PSR sort gate)” value was “low polyreactivity”.

For “QVQLVESGGGLVQAGGSLRLSCPASGTLTVNTMGWYRQAPGKERELVAAISTGDTTTYADSVKGRFTISRDNAKNTVYVQMNSLKPEDTAVYYCNVDIGVYAYESDYWGQGSQVTVSS”, the “polyreactivity (PSR sort gate)” value was “low polyreactivity”.

As to “QVQLVESGGGLVQAGGSLRLSCPDSAFTFSLYGMGWYRQAPGKEREMVAAIRSGGSTNYADSVKGRFTISRDNAKNTVYLQMNSVKPEDTAVYVCATDIHSVHNNRDKHDYDYWGQGTQVTVSS”, the “polyreactivity (PSR sort gate)” value is “low polyreactivity”. Consider “QVQLVESGGGLVQAGGSLRLSCSACGGIFDWYAMGWYRQAPGKERELVAAIDFSGDSTYYADSVKGRFTISRDNAKNTVYLQMNSLKPEDTAVYYCAAETNTWYLFDYWGQGTQVTVSS”, for which the “polyreactivity (PSR sort gate)” value is listed as “high polyreactivity”. Turning to “QVQLVESGGGLVQAGGSLRLSCSASGFIFFRYSMGWYIQAPGKERELVAAINSSGDSTYADSVKGRFTISRDNAKNTFYLQMNSLKPEDTAVYYCATGGRTEIWYPTLDYWGQGTQVTVSS”, the “polyreactivity (PSR sort gate)” value was “low polyreactivity”. Take “QVQLVESGGGLVQAGGSLRLSCSASGFIFQGYAMGWDRQAPGKERELVATITTSSRTYYADSVKGRFTISRDNAKNTVYLQMYSLKPEDTAVYYCATRGSYRSQRWYGYWGQGTQVTVSS”: the “polyreactivity (PSR sort gate)” value is “high polyreactivity”. On to “QVQLVESGGGLVQAGGSLRLSCSASGFIFYKNAMGWYRQAPGKERELVAAISGGGGSTYYADSVKGRFTISRDNAKNTVYLQMNSLKPDDTAVYYCATYSFRRTGWRYDYWGQGSQVTVSS”, for which the “polyreactivity (PSR sort gate)” value is on record as “high polyreactivity”. In the case of “QVQLVESGGGLVQAGGSLRLSCSASGFNFRRYAMGLYRQAPGKERELVAVITSGGSTYYADSVKGRFTISRDNAKNTVYLQMNSLKTEDTAVYYCAARYYWYSQEYVLSSWWGDYCGQGTQVTVSS” it was “high polyreactivity”; in that of “QVQLVESGGGLVQAGGSLRLSCSASGIIFYFYAMGWYRQAPGKERELVAAISDDGVSTDYADSVKGRFTISRDNAKNTVYLQMNSLKPEDTAVFYCNARYSGYLRLDYWGQGTQVTVSS”, “low polyreactivity”.
